Reference: patent US20260176352A1 (BIRD ROCK BIO, published 2026)
Numbering of substitutions follows the chain as printed. Names and notes keep the numbering of the source.

Columns and labels:
mouse CB1 = biological target: T1, mouse CB1 (mouse, UniProt P47746 1-473); test: flow cytometry on TRex-CHO mouse CB1 cells, lower panel
T1 construct: whole, on cells; also called TRexCHO Mouse CB1
Procedure: (§1) After being washed with 200 μl of FACS buffer twice, cells were incubated with PE conjugated anti-human secondary antibody (Southern Biotech) for 30 minutes on ice. Cells were washed with 200 μl of FACS buffer twice and transferred to BD Falcon 5 ml tube and analyzed by flow cytometry (BD FACScalibur).

human CB2 = biological target: T2, human CB2 (human, UniProt P34972 1-360); test: flow cytometry on TRex-CHO human CB2 cells, middle panel
T2 construct: whole, on cells; also called TRexCHO Human CB2
T2 sequence (P34972 whole entry): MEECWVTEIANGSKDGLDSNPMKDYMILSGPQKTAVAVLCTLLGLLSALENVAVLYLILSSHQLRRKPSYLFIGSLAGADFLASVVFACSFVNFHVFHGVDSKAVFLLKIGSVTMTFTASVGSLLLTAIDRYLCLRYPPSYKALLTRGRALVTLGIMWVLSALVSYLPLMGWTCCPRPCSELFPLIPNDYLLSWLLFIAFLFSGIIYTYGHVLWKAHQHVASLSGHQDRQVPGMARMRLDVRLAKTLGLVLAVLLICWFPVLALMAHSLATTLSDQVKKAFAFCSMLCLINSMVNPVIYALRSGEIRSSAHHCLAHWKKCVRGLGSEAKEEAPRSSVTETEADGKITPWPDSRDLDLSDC
Procedure: as §1

[1] = biological target: T3, native full length human CB1 receptor (cannabinoid 1 receptor) (human, UniProt P21554 1-472); test: cell-based or functional assay
T3 sequence (P21554 whole entry): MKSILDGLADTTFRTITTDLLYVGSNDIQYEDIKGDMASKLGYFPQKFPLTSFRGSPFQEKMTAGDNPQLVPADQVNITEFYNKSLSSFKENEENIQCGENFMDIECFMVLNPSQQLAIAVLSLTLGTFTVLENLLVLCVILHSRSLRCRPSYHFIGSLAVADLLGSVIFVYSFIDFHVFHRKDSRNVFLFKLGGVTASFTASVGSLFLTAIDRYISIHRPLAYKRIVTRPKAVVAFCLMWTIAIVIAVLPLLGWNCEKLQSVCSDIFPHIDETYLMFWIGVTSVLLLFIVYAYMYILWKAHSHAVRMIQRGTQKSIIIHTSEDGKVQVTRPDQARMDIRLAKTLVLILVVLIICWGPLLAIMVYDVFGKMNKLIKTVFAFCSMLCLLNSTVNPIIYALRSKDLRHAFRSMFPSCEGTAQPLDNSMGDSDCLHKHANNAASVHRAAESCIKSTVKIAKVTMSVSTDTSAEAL

[2] = biological target: T3, native full length human CB1 receptor …; test: flow cytometry, TRex-CHO full length native human CB1 cells; mean
Procedure: (§2) After being washed with 200 μL of FACS buffer twice, cells were incubated with secondary antibody for 30 minutes on ice. Cells were washed with 200 μL of FACS buffer twice and transferred to BD Falcon 5 mL tube and analyzed by FACS. Data analysis and measurement of binding affinity (KD) was performed using GraphPad Prism software.

[3] = biological target: T3, native full length human CB1 receptor …; test: flow cytometry, TRex-CHO full length native human CB1 cells; Exp 1
Procedure: as §2

[4] = biological target: T3, native full length human CB1 receptor …; test: flow cytometry, TRex-CHO full length native human CB1 cells; Exp 2
Procedure: as §2

[5] = biological target: T3, native full length human CB1 receptor …; test: cell-based or functional assay; remark: listed apart in the source
[6] = biological target: T3, native full length human CB1 receptor …; test: flow cytometry, Fab on TRex-CHO human CB1 cells
[7] = biological target: T3, native full length human CB1 receptor …; test: flow cytometry on TRex-CHO cells stably transfected with tetracycline inducible CB1, FITC-conjugated anti-human antibody [panel A]
[8] = biological target: T4, A138 iCAPS (CB1 with ICL3 native sequence replaced with protein 1 sequence) (human, UniProt P21554 99-414); test: ELISA, purified IgG on A138 CB1 iCAPS
T4 construct: The insert stands inside the chain in place of ICL3
T4 sequence (P21554 whole entry): as above
Procedure: (§3) Purified IgG was tested for binding to purified CB1 receptor (CB1 Conformation Antigen Presenting System (iCAPS)) by ELISA. Non-biotinylated antigens (e.g. empty iCAPS) were coated directly on Maxisorp plates. The primary antibodies were purified IgGs with 1:3 serial dilutions, incubated on the plate for 1 hour. After 3 rounds of washing with PBST, secondary antibodies HRP goat anti-mouse IgG (Abmart) or HRP goat anti-human IgG (Sigma), depending on the species of the IgGs were added and incubated for another hour. The plates were washed three times with PBST, then developed with TMB (Biopanda). HCl was added to the plates to stop the reaction. Absorbance at 450 nm was read on Emax precision microplate reader (Molecular Devices).

[9] = biological target: T5, A139 iCAPS (CB1 with ICL3 native sequence replaced with BRIL) (human, UniProt P21554 99-414); test: ELISA, purified IgG on A139 CB1 iCAPS
T5 construct: The insert stands inside the chain in place of ICL3
T5 sequence (P21554 whole entry): as above
Procedure: as §3

[10] = biological target: T3, native full length human CB1 receptor …; test: cell-based or functional assay; remark: listed apart in the source

T1 sequence (P47746 whole entry): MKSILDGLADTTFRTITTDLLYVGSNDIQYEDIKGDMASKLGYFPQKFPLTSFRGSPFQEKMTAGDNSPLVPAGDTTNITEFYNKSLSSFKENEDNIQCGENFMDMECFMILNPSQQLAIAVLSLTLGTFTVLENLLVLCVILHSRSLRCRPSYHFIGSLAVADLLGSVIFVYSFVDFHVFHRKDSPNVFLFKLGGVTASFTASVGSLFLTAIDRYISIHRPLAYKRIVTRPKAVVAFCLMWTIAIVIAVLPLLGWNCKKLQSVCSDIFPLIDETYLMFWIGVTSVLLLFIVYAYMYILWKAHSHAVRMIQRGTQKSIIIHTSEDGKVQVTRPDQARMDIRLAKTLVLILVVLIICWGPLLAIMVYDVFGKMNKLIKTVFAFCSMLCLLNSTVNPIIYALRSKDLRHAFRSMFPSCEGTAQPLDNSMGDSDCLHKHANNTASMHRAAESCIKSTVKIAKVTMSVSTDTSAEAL

B1: P1C4-h2-IgG1 (antibody)
heavy: not shown
light: EIVLTQSPATLSLSPGERATLSCRASQSVSSSYLHWYQQKPGQAPRLLIYSTSNLASGIPARFSGSGSGTDFTLTISRLEPEDFAVYYCHQYHRSPPTFGQGTKVEIKRTVAAPSVFIFPPSDEQLKSGTASVVCLLNNFYPREAKVQWKVDNALQSGNSQESVTEQDSKDSTYSLSSTLTLSKADYEKHKVYACEVTHQGLSSPVTKSFNRGEC
notes: also called P1C4-H2 (YE); P1C4-H2 (YE)-IgG
B1: no binding (tested: about 300 nM (last point)) (mouse CB1); no binding (tested: about 300 nM (last point)) (human CB2).

B2: P1C4-h4-IgG1 (antibody)
heavy: not shown
light: B1 light
notes: also called P1C4-H4 (YENG); P1C4-H4 (YENG)-IgG
B2: no binding (tested: about 300 nM (last point)) (mouse CB1); no binding (tested: about 300 nM (last point)) (human CB2).

B3: RY-HL-LC-A12 FACS4 (IgG4 S228P) (antibody, V domains shown)
VH: QVQLVQSGAEVKKPGSSVKVSCKASGYEFSYYWMNWVRQAPGQGLEWMGQIYPGDGETKYAQKFQGRVTITADKSTSTAYMELSSLRSEDTAVYYCARSHGNYLPYWGQGTLVTVSS
VL: EIVLTQSPATLSLSPGERATLSCRASQSVSSRYLHWYQQKPGQAPRLLIYGTSNLASGIPARFSGSGSGTDFTLTISRLEPEDFAVYYCHQYSRSPPTFGQGTKVEIKR
For B3, the “Exp 1 IC50 (nM), cAMP antagonist assay” value [1] was 48 nM, the “Exp 2 IC50 (nM), cAMP antagonist assay” value [1] was 33.9 nM and the “Exp 3 IC50 (nM), cAMP antagonist assay” value [1] was 42.4 nM. It also gave a Kd [2] of 10.3 nM, a Kd [3] of 11.5 nM and a Kd [4] of 9.19 nM.

B4: P1C4-h2 Fab (Fab, V domains shown)
VH: B3 VH
VL: EIVLTQSPATLSLSPGERATLSCRASQSVSSSYLHWYQQKPGQAPRLLIYSTSNLASGIPARFSGSGSGTDFTLTISRLEPEDFAVYYCHQYHRSPPTFGQGTKVEIK
notes: Fab; constant parts not described; also called humanized P1C4 Fab h2
B4 was tested, and the “IC50 cAMP assay” value [5] was 52 nM, the Kd [6] was 14 nM and the “EC50 (read off the curve)” value [7] was 10 to 20 nM.

B5: RY-LC-A10 FACS5 (IgG4 S228P) (antibody, V domains shown)
VH: B3 VH
VL: B3 VL with G51S, L55R, H90Q, S93H
In the case of B5, the “Exp 1 IC50 (nM), cAMP antagonist assay” value [1] is reported as 120 nM, the “Exp 2 IC50 (nM), cAMP antagonist assay” value [1] is reported as 62.6 nM and the “Exp 3 IC50 (nM), cAMP antagonist assay” value [1] is reported as 48.1 nM. For the same binder, the Kd [2] was 12.4 nM and the Kd [4] was 12.4 nM.

B6: RY-HL-LC-C12 FACS4 (IgG4 S228P) (antibody, V domains shown)
VH: B3 VH
VL: B3 VL with G51S, N54R, S93H
B6 was tested, and the “Exp 1 IC50 (nM), cAMP antagonist assay” value [1] was 76.8 nM, the “Exp 2 IC50 (nM), cAMP antagonist assay” value [1] was 52.5 nM and the “Exp 3 IC50 (nM), cAMP antagonist assay” value [1] was 43.1 nM. It also gave a Kd [2] of 14.1 nM, a Kd [3] of 14.4 nM and a Kd [4] of 13.9 nM.

B7: RY-LC-B12 FACS3 (IgG4 S228P) (antibody, V domains shown)
VH: B3 VH
VL: B3 VL with G51S, N54R, H90Q, S93H
B7 was tested, and the “Exp 1 IC50 (nM), cAMP antagonist assay” value [1] was 40.9 nM, the “Exp 2 IC50 (nM), cAMP antagonist assay” value [1] was 32.9 nM and the “Exp 3 IC50 (nM), cAMP antagonist assay” value [1] was 39.7 nM. For the same binder, the Kd [2] was 8.82 nM, the Kd [3] was 8.75 nM and the Kd [4] was 8.89 nM.

B8: PA2R3-P1F1 (chimeric) (antibody, V domains shown)
VH: EVQLQQSGAELMKPGASVKISCKATGYTFSSYWIEWVKQRPGHGLEWIGEILPGSGSTNYNEKFKGKATFTADTSSNTAYMQLSSLTSEDSAVYYCARGAWLLSYWYFDVWGAGTSVTVSS
VL: DIQMMQSTSSLSASLGDRVTISCSASQGISNYLNWYQQKPDGTVKLLIYYTSSLHSGVPSRFSGSGSGTQFSLKINSLQPEDFGSYYCQHHYGTPYTFGGGTKLELKR
Binder B8 has an EC50 [8] of 1.3 nM and an EC50 [9] of 1.1 nM.

B9: PA2LR3-P6G7 (chimeric) (antibody, human IgG1, kappa, V domains shown)
VH: EVQLQQSGAELVRPGSSVKISCKASGFAFSNYWMNWVKQRPGQGLEWIGQIYPGDGDTNFNGKFKGRAILTADISSNTAYMQLSSLTSEDSAVYFCARSHGNYFPYWGQGTLVTVSA
VL: DIVLTQSPAIMSASLGERVTMTCTASSSVSSSYLHWYQQKPGSSPKLWIYSTSNLASGVPARFSGSGSGTSYSLTISSMEAEDAATYYCHQHHRSPPTFGAGTKLELKR
In the case of B9, the “EC50, cAMP agonist functional assay” value [10] is reported as > 300 nM.

B10: PA2LR3-P6B12 (chimeric) (antibody, human IgG1, kappa, V domains shown)
VH: B9 VH with F27Y, N31Y, F60Y, R67K, I69T, I74K, N77S, P105A
VL: B9 VL with D1Q, H92Y, P97L, T98A
In the case of B10, the “EC50, cAMP assay in the presence of CP55940” value [10] is reported as ~1000 nM.

B11: PA2LR3-P4B1 (chimeric) (antibody, human IgG1, kappa, V domains shown)
VH: B9 VH
VL: B9 VL with D1Q, H92Y, P97L
In the case of B11, the “EC50, cAMP agonist functional assay” value [10] is reported as > 300 nM, the EC50 [8] is reported as 1.28 nM and the EC50 [9] is reported as 1.41 nM.

B12: PA2LR3-P2D3 (chimeric) (antibody, human IgG1, kappa, V domains shown)
VH: B9 VH with F27Y, N31Y, F60Y, R67K, I69T, I74K, N77S, N102S, P105A
VL: DIELAQSPASLAVSLGQRATISCRASESVDSYGNSFMHWYQQKPGQPPKLLIYLASNLESGVPARFSGSGSRADFTLTIDPVEADDAATYYCLQYASSPPTFGAGTKLEIKR
For B12, the “EC50, cAMP agonist functional assay” value [10] was > 300 nM, the EC50 [8] was 4.9 nM and the EC50 [9] was 2.6 nM.
